Experimental data: patent US20240101959A1, “USE OF IL-2R-BETA-GAMMA AGONIST PEPTIDES IN CELL MANUFACTURING” (MEDIKINE, INC., priority 2022, published 2024)
Positions of bridges follow the written chain, without caps; N, C: chain ends. No end group written: not given here.

T1: hu-IL-2Rβ subunit (human, UniProt P14784 27-240, limits assumed)
T1 construct: also called human interleukin-2 receptor subunit β; CD122
T1 sequence (looked up): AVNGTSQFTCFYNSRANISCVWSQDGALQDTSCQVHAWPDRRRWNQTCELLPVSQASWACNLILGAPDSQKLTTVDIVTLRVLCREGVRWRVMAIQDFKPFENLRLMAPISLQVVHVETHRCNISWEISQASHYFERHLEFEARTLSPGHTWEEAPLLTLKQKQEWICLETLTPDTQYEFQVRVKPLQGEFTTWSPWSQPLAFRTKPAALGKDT


The binders below were run against T1, hu-IL-2Rβ subunit (assay: phage ELISA competition assay).

Binder	IC50
WYPCWVAQLGELCDLE [SEQ ID NO 462]	< 100 µM
WYPCWVAKLGELCDLE [SEQ ID NO 472]	< 100 µM
WYPCWMAHLGELCDLE [SEQ ID NO 474]	< 100 µM
WYPCWLAQVGELCDLD [SEQ ID NO 554]	< 100 µM
WYPCWIARVGELCDME (disulfide 4-13 (inferred)) [SEQ ID NO 342]	< 100 µM
WYPCWIARVGELCDLE [SEQ ID NO 553]	< 100 µM
RREWYPCWIAQVGELCDLPLI [SEQ ID NO 343]	< 100 µM
RWPWYPCEIARIGELCDLEQAN [SEQ ID NO 344]	< 100 µM
WLPCWMAHLGQLCDLDLPGKSM [SEQ ID NO 96]	< 100 µM
FGAFYPCWKAQLGELCDLEPVT [SEQ ID NO 345]	< 100 µM
HGRWFPCWMAQVGDLCDLEHSN [SEQ ID NO 346]	< 100 µM
WYPCWLAKLGELCDLDRAEALP [SEQ ID NO 347]	< 100 µM
VWFPCWFAQLGDLCDLDQDP [SEQ ID NO 348]	< 100 µM
ETLGSVWYPCWIASIGELCDLD [SEQ ID NO 349]	< 100 µM
WYSCWIAQLGELCDLDDMGDRV (disulfide 4-13 (inferred)) [SEQ ID NO 350]	< 100 µM
WFPCWLAQLGELCDKE [SEQ ID NO 351]	< 100 µM
SHLWFPCWMAQLGELCDLEGGP [SEQ ID NO 353]	< 100 µM
RRWLPCWMAHVGELCDLELGN [SEQ ID NO 354]	< 100 µM
EGVFFPCWIARLGELCDLDHGL [SEQ ID NO 97]	< 100 µM
YWCWFARVGELCDLDDGGVPS [SEQ ID NO 355]	< 100 µM
WYSCWIAQIGELCDLE [SEQ ID NO 356]	< 100 µM
MNPVGTFYPCWIAKLGELCDLQ [SEQ ID NO 357]	< 100 µM
HGGVIGWYPCWMAKVGELCDLD (disulfide 10-19 (inferred)) [SEQ ID NO 358]	< 100 µM
WYPCSIALLGELCDLESVHEKS (disulfide 4-13 (inferred)) [SEQ ID NO 359]	< 100 µM
EQRNRQWWPCWLARLGDLCDLD [SEQ ID NO 360]	< 100 µM

Binder	IC50
WLPCWMAHLGDLCDLE [SEQ ID NO 362]	< 100 µM
RPSWAPCWLAQVGELCDLDHPE (disulfide 7-16 (inferred)) [SEQ ID NO 363]	< 100 µM
ESKEPAFWPCWMAQLGDLCDLE [SEQ ID NO 364]	< 100 µM
WLPCWIARLGDLCDLE [SEQ ID NO 80]	< 100 µM
TGRWKPCWMAGLHELCDLEGFR [SEQ ID NO 98]	< 100 µM
RSLRESWFPCWMAKLGDLCDLE [SEQ ID NO 365]	< 100 µM
WHPCWLARVGDLCDLD [SEQ ID NO 366]	< 100 µM
SRSAGEYYPCWLAQLGELCDLA [SEQ ID NO 367]	< 100 µM
RQVPKQWYPCWMAALGELCDLE [SEQ ID NO 368]	< 100 µM
QVMRLWYPCWMAQLGELCDLE [SEQ ID NO 370]	< 100 µM
WYPCWMAQLGELCDLDEAPVQP [SEQ ID NO 371]	< 100 µM
RDIWWPCWVAQLGELCDLDDPQ [SEQ ID NO 372]	< 100 µM
SATWYPCFLANLGELCDLEQEN [SEQ ID NO 373]	< 100 µM
YAEWYPCWMARVGEVCDLEVTP [SEQ ID NO 374]	< 100 µM
RKHFYPCWMAQLGELCDLEGMP [SEQ ID NO 99]	< 100 µM
RSGDKAFFPCWLAQLGDLCDLD [SEQ ID NO 375]	< 100 µM
RVSYPCWLARLGELCDMDLEE [SEQ ID NO 377]	< 100 µM
TESWYPCWLANLGDLCDLEWSA [SEQ ID NO 378]	< 100 µM
WLPCWMADVGDLCDLD [SEQ ID NO 379]	< 100 µM
WHPCWMARLGELCDLD [SEQ ID NO 380]	< 100 µM
QGTKWHWNPCWMAQLGELCDLD [SEQ ID NO 381]	< 100 µM
KNGPKSWYPCWMAQVGDLCDLD [SEQ ID NO 382]	< 100 µM
SGTGPAWYPCFLASLGQLCDLE [SEQ ID NO 383]	< 100 µM
DIGYYPCWMAQVGDLCDLDDEK [SEQ ID NO 100]	< 100 µM
